Assay results: patent US20240052052A1 (published 2024)

Target: T1, human CD24 (human, UniProt P25063 27-59, heavily glycosylated, GPI-anchored (as described in the background))
T1 chain: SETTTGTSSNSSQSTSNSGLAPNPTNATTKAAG
Test: FACS binding; DoHH2 cells

- EC50: 1.87 nM
B1: SN3 (antibody, V domains shown)
VH: QVQLKESGPGLVAPSQSLSITCTVSGFSLTSYGVHWVRQPPGKGLEWLGVIWAGGSTNYNSALMSRLSISKDNSKSQVFLKMNSLQTDDTAMYYCAVYYGYLFFAYWGQGTLVTVSA
VL: ENVLTQSPAIMSASPGEKVTMTCSASSSVSYMHWYQQKSTTSPKLWIYDTSKLASGVPGRFSGSGSGNSYSLTISSMEAEDVATYYCFQGSGYPLTFGGGTKLEIK
